{"source": "patent US6277622", "target": "recombinant tropoelastin (human) (UniProt P15502)", "data": [{"substance": "recombinant human lysyl oxidase derived from the plasmid p3dL^m2 (enzyme)", "values": [{"measurement": "percentage of total lysine in the precipitate (amino acid analysis) after 2 hrs at 37 C; formation of insoluble protein", "result": 2.5, "unit": "% lysine"}]}]}
